According to patent US9371393B2, “Class I anti-CEA antibodies and uses thereof” (Immunomedics, Inc., priority 2009, dated 2016):
“Also recorded” adds a separate entry of the source. Values belong to the molecule of their own block, whether it stands above or below them.

Assays:
CEA (HeLa-CEA2) = target: T1, CEA (HeLa-CEA2) (Homo sapiens, UniProt P06731); assay: Indirect flow cytometry, HeLa-CEA2; type: binding; conditions: antibodies at 1/50 dilution of 1 mg/ml stocks
T1 construct: expressed in transfected cells; host or cells: HeLa (HeLa-CEA2)
T1 sequence (P06731 35-676): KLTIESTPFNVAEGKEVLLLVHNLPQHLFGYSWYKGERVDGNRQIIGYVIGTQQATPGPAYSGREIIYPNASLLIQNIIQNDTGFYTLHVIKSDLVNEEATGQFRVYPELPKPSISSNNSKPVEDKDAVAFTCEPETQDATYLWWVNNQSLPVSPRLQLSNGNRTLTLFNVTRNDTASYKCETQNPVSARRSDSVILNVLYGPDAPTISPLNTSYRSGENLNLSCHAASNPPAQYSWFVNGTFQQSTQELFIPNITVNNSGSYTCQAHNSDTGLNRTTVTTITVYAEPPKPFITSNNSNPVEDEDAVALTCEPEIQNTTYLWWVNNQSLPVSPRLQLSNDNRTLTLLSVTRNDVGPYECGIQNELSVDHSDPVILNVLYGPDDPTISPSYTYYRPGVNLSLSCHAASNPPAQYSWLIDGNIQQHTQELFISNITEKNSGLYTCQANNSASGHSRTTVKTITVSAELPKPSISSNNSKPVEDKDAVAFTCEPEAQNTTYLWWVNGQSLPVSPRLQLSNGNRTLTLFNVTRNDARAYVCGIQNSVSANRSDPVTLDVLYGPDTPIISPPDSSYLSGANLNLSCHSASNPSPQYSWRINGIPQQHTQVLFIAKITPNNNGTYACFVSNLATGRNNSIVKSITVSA
Method: The reactivity of antibodies was tested by flow cytometry with a Becton-Dickinson FACSCAN®. The biotinylated second antibody was directed against mouse IgG and was detected by a streptavidin/phycoerythrin conjugate. Tests were carried out with antibodies at 1/50 dilution of 1 mg/ml stocks.
The antibodies MN-3 and MN-15 were tested for recognition of HeLa cells transfected with cDNA coding for CEA (HeLa-CEA2), NCA-90 (HeLa-KNC6/S44) and NCA-95 (HeLa-CGM6/1). As a negative control, HeLa cells transfected with the plasmid pSV2-Neo (control HeLa cells, HeLa-NeoA) were used. In addition to the antibodies MN-3 and MN-15, three control antibodies were included: […]

granulocytes = assay: Granulocyte reactivity, whole-blood indirect fluorescent flow cytometric analysis; type: binding
Method: Hybridoma supernatants were screened for CEA reactive antibody by the ROCHE® ^125I-CEA radioimmunoassay (RIA) in 0.01 and 0.10 M NH4 acetate buffer. Positive clones were recloned. The granulocyte reactivity of CEA-reactive MAb was determined by whole-blood indirect fluorescent flow cytometric analysis (Sharkey et al. Cancer Res., 1990, 50:2823-31). Two MAb with properties similar to those of NP-2 and NP-3, designated MN-2 and MN-6, were selected for additional development.
Immunoreactivity with blood lymphocytes was determined by live-cell indirect immunofluorescence, with the use of the whole blood staining method developed for use with the ORTHO SPECTRUM® I11 flow cytometer (Ortho Diagnostic Systems, Inc., Raritan, N.J.). Tissue reactivity of the MAb was determined by immunohistologic examination performed on frozen sections and 5-μm sections cut from tissue embedded in Paraplast-II. Indirect immunofluorescence on frozen sections was performed as previously described, with MAb concentrations of 20 μg/ml (Pawlak-Byczkowska et al., Cancer Res 1989, 49:4568-77).

[1] = test system: Moser binding to fibronectin; assay: Adhesion to extracellular matrix proteins assay, Moser; type: cell-based, human
Method: Adhesion to extracellular matrix proteins assay—The assay was done using the CYTOMATRIX™ screening kit from CHEMICON® (Kit #ECM205, Temecula, Calif.). The kit contains 96-well plates with strips coated with fibronectin, vitronectin, laminin, collagen-I, or collagen-IV. Subconfluent cell cultures were used for these studies. Cells (1×10^6 cells/mol) were seeded onto coated substrate and incubated at 37° C. for 1 hour in a CO2 incubator in PBS containing Ca^2+/Mg^2+ (200 μL per well). Adherent cells were fixed and stained. The plate was washed to remove unadhered cells and stained with 100 μL per well of MTS (Cell Titer Aq 96, PROMEGA®, Madison, Wis.) for 5 minutes at room temperature. Excess stain was removed with three PBS washes. Solubilization buffer [100 μL of a 50:50 mixture of 0.1 mol/L NaH2PO4 (pH 4.5) and 50% ethanol] was added to each well. Relative attachment was determined using absorbance readings (A540 nm-A570 nm).

BXPC3 cells = assay: Collagen-based invasion assay, BXPC3; type: cell-based, human; conditions: 10% FBS chemoattractant, 72-hour incubation
Method: (§1) Collagen-based invasion assay—The assay was done using CHEMICON® Kit (#ECM551, MILLIPORE®, Billerica, Mass.). Tumor cells at 80% confluence and were serum-starved for 18 to 24 hours before the assay was used. Cells were harvested with 5 mol of 2 mmol/L EDTA/PBS per 100-mm dish and incubated at 37° C. for 5 to 15 minutes. Cells were collected into 10 to 20 mol of quenching medium (serum-free DMEM containing 5% BSA) to inactivate trypsin/EDTA from the harvesting buffer. Cells were pelleted, resuspended in quenching medium (1×10^6 cells/mol), and appropriate antibody Fabs were added to individual cell aliquots. Cell invasion potential was determined as follows. Baseline invasion and invasion in the presence of a chemoattractant (10% FBS) were measured after a 72-hour incubation period at 37° C. in a 5% CO2 incubator. The bottom side of the collagen-coated polycarbonate membrane insert of the invasion chamber was placed in 400 μL of cell stain for 20 minutes at room temperature and washed. The dye was extracted and transferred into a 96-well microtiter plate for colorimetric measurements (A560 nm).

MCF-7 cells = assay: Collagen-based invasion assay, MCF-7; type: cell-based, human; conditions: 10% FBS chemoattractant, 72-hour incubation
Method: as §1

binding to CEA (CEA (HeLa-CEA2)): binds to all three antigens
effect on binding to fibronectin [1]: not affecting the binding
B1: MN-15: murine Class I anti-CEA MAb, IgG1 kappa, binds A1B1 domain of CEACAM5 and CEACAM6 (antibody, V domains shown)
VL: DIQLTQSPAIMSASPGEKVTMTCSASSRVSYIHWYQQKSGTSPKRWIYGTSTLASGVPARFSGSGSGTSYSLTISSMEAEDAATYYCQQWSYNPPTFGAGTKLELKR
VH: EVRLVESGGGLVQGPGSLRLSCAASGFALTDYYMSWVRQSPGKTLEWLGFIANKANGHTTDYSPSVKGRFTISRDNSQTILYLQMNTLRTEDSATYYCARDMGIRWNFDVWGQGTTVTVSS
granulocyte reactivity (granulocytes): granulocyte-reactive; also recorded: high granulocyte reactivity; also recorded: reacted strongly with granulocytes

B2: MN-15 Fab′: monovalent Fab′ fragment of murine MN-15 (antibody, V domains shown)
VL: B1 VL
VH: B1 VH
reduction in cell invasion (BXPC3 cells): 44%
reduction in cell invasion (MCF-7 cells): 77%
